The source of these data is paper PMC11700839.

This test addresses ETS1 transcription factor (endogenous, FP-RMS cells) (human (endogenous in Rh30 and Rh41)) (UniProt P14921). The experiment in a line: co-IP; endogenous proteins from Rh30 and Rh41 cells, IP with ETS1 antibody (rabbit IgG as negative control), immunoblot; also with Ethidium Bromide or Benzonase in the IP; also cells pre-treated 16 hours with 1 µM YK-4-279 or DMSO and the same included in the IP reaction, recovery by densitometry normalized to ETS1. Background: In western blotting, separated proteins are transferred to a membrane and probed.
Sequence of UniProt P14921 (P14921 whole entry): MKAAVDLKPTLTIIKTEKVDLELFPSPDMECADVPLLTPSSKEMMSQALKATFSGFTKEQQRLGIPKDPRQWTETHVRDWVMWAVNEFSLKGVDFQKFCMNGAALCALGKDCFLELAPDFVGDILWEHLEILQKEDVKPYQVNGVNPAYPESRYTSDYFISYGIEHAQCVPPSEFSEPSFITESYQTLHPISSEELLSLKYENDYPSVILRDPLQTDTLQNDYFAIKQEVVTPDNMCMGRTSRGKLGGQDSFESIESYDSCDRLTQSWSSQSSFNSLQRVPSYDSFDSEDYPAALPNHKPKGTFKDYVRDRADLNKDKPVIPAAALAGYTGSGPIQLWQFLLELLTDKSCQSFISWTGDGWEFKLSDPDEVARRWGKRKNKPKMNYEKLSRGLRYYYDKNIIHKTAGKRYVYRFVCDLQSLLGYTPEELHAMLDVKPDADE

In the case of “PAX3-FOXO1 oncofusion (endogenous, FP-RMS cells) (natural protein)”, the co-immunoprecipitated PAX3-FOXO1 with 1 µM YK-4-279, percent of DMSO control (Rh30 cells) (% of DMSO control) amounted to 50 and the co-immunoprecipitated PAX3-FOXO1 with 1 µM YK-4-279, percent of DMSO control (Rh41 cells) (% of DMSO control) came out at 65.
